In paper PMC3107930:

Molecular target: motavizumab Fab
Assay: SPR

Substance “RSV F peptide (motavizumab epitope peptide)” has a Kd of 241 nM.
